B1: STX11 (parent)
chain: FQRAMHDYNQAEMKQRDNCKIRIQ
B2: RTN1 (parent)
chain: VVAYLALAALSATISFRIYKSVLQ

Variants of: B1
Test: protein stability index of a GFP-peptide fusion (GPS, HEK-293T) (PSI 1-6); higher = more stable
Details: c terminus: a fixed tail appended
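Also: lentivirally expressed fusions sorted by FACS into six bins by GFP to DsRed ratio, PSI derived from sequencing read proportions per bin multiplied by bin number.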

Row | Variant | protein stability index
1 | F1A | 3.87
2 | F1H | 4.18
3 | F1S | 4.1
4 | F1M | 3.82
5 | F1P | 4.17
6 | F1C | 3.56
7 | F1R | 3.28
8 | F1T | 4.11
9 | F1Y | 2.78
10 | F1W | 3.69
11 | F1Q | 4.13
12 | F1K | 3.98
13 | F1N | 4.4
14 | F1E | 4.17
15 | F1L | 3.29
16 | F1V | 3.46
17 | F1D | 4.15
18 | F1I | 3.46
19 | F1G | 3.88
20 | H6N | 3.3
21 | H6R | 2.16
22 | H6P | 2.5

Row | Variant | protein stability index
23 | H6S | 1.9
24 | H6L | 2.91
25 | H6F | 2.32
26 | H6I | 2.42
27 | H6W | 2.43
28 | H6T | 3.06
29 | H6K | 2.74
30 | H6M | 1.96
31 | H6V | 2.8
32 | H6E | 4
33 | H6Y | 3.26
34 | H6Q | 2.66
35 | H6A | 2.74
36 | H6G | 2.9
37 | H6D | 2.92
38 | H6C | 2.7
39 | A4Q | 3.56
40 | A4C | 2.21
41 | A4T | 2.69
42 | A4W | 1.77
43 | A4F | 2.86
44 | A4S | 2.8

Row | Variant | protein stability index
45 | A4D | 3.4
46 | A4V | 2.28
47 | A4H | 2.75
48 | A4Y | 2.59
49 | A4E | 3.15
50 | A4N | 2.78
51 | A4P | 3.3
52 | A4L | 2.46
53 | A4G | 2.19
54 | A4I | 2.18
55 | A4M | 2.22
56 | A4R | 1.9
57 | A4K | 2.54
58 | D7S | 2.21
59 | D7V | 2.15
60 | D7M | 2.85
61 | D7T | 2.23
62 | D7G | 2.18
63 | D7P | 2.23
64 | D7C | 1.71
65 | D7A | 2.67
66 | D7E | 3.09

Row | Variant | protein stability index
67 | D7L | 1.43
68 | D7K | 2.56
69 | D7N | 2.66
70 | D7Q | 2.24
71 | D7H | 2.3
72 | D7R | 2.12
73 | D7I | 1.7
74 | D7Y | 1.67
75 | D7F | 1.17
76 | Y8A | 3.64
77 | Q2E | 4
78 | Q2C | 1.79
79 | Q2Y | 2.95
80 | Q2L | 2.65
81 | Q2A | 2
82 | Q2I | 2.27
83 | Q2N | 3.61
84 | Q2V | 2.55
85 | Q2K | 3.14
86 | Q2H | 1.81
87 | Q2D | 4.2
88 | Q2P | 2.76

Row | Variant | protein stability index
89 | Q2G | 3.82
90 | Q2T | 2.63
91 | Q2F | 2.84
92 | Q2R | 3.02
93 | Q2M | 2.69
94 | Q2S | 3.41
95 | Q2W | 2.19
96 | M5Q | 2.95
97 | M5N | 3.1
98 | M5G | 2.9
99 | M5C | 2.73
100 | M5V | 2.63
101 | M5F | 1.8
102 | M5T | 3.15
103 | M5K | 2.86
104 | M5S | 2.63
105 | M5D | 3.65
106 | M5Y | 1.88
107 | M5P | 2.64
108 | M5H | 2.16
109 | M5L | 3.18
110 | M5E | 3.77

Row | Variant | protein stability index
111 | M5R | 2.78
112 | M5I | 2.16
113 | M5A | 3.93
114 | R3M | 1.62
115 | R3D | 3.44
116 | R3P | 2.99
117 | R3I | 2.38
118 | R3F | 2.07
119 | R3V | 2.86
120 | R3C | 1.65
121 | R3S | 2.51
122 | R3K | 3.01
123 | R3E | 3.99
124 | R3A | 2.94
125 | R3H | 2.97
126 | R3Y | 2.25
127 | R3Q | 3.28
128 | R3T | 2.93
129 | R3N | 3.12
130 | R3G | 2.88
131 | R3L | 2.76

Variants of: B2
Test: as above
Details: c terminus: a fixed tail appended

Row | Variant | protein stability index
132 | A9S | 2.41
133 | A9W | 1.94
134 | A9L | 2.44
135 | A9V | 2.94
136 | A9G | 1.53
137 | A9K | 2.25
138 | A9C | 2.86
139 | A9P | 3.77
140 | A9T | 2.52
141 | A9Y | 3.25
142 | S15G | 2.29
143 | S15T | 2.56
144 | S15I | 1.84
145 | S15V | 4.48
146 | S15F | 1.27
147 | S15Q | 2.82
148 | Y19V | 2.12
149 | Y19R | 3.4
150 | Y19I | 2.51
151 | Y19S | 2.1
152 | Y19L | 1.46
153 | Y19W | 1.49
154 | Y19Q | 3.66
155 | Y19A | 2.51
156 | Y19E | 4.55
157 | S21K | 1.45

Row | Variant | protein stability index
158 | S21Q | 2.56
159 | S21H | 1.9
160 | S21M | 2.42
161 | S21R | 1.99
162 | S21N | 1.52
163 | S21A | 1.89
164 | S21T | 3.04
165 | S21V | 4.53
166 | S21P | 1.65
167 | S21I | 2.91
168 | S21E | 2.38
169 | R17F | 1.94
170 | R17P | 2.35
171 | R17K | 2.03
172 | R17Y | 3.59
173 | R17I | 2.21
174 | A12V | 3.42
175 | A12L | 3.9
176 | A12Q | 2.67
177 | A12C | 2.45
178 | A12H | 3.12
179 | A12E | 2.05
180 | A12F | 2.85
181 | A12Y | 2.39
182 | I18F | 2.06
183 | I18R | 2.8

Row | Variant | protein stability index
184 | I18S | 2.78
185 | I18V | 4.01
186 | I18E | 3.04
187 | I18Y | 3.91
188 | I18W | 4.75
189 | K20R | 4.17
190 | K20D | 2.89
191 | T13R | 2.82
192 | T13G | 1.32
193 | T13C | 1.87
194 | T13P | 2.21
195 | T13H | 2.61
196 | T13Y | 1.86
197 | T13K | 2.77
198 | T13I | 2.86
199 | I14R | 3.01
200 | I14M | 3.4
201 | I14E | 3.06
202 | I14N | 1.02
203 | S11P | 2.49
204 | S11K | 2.4
205 | S11V | 1.41
206 | S11G | 2.02
207 | S11C | 1.28
208 | S11Y | 2.33
209 | S11R | 2.44

Row | Variant | protein stability index
210 | S11M | 2.45
211 | S11A | 3.26
212 | L10W | 2.44
213 | L10G | 3.08
214 | L10Y | 2.83
215 | L10P | 2.69
216 | L10E | 2.17
217 | L10A | 2.38
218 | L10M | 3.33
219 | L10Q | 2.41
220 | L23H | 3.01
221 | L23V | 2.5
222 | L23Q | 1.9
223 | L23Y | 3.05
224 | L23P | 2.48
225 | L23S | 1.66
226 | L23A | 2.28
227 | Y4I | 4.11
228 | Y4G | 4.1
229 | Y4H | 2.65
230 | Y4D | 2.35
231 | Y4R | 3
232 | Y4K | 2.3
233 | Y4E | 2.1
234 | Y4M | 2.6
235 | A8H | 1.75

Row | Variant | protein stability index
236 | A8W | 3.8
237 | A8L | 2.31
238 | A8S | 1.95
239 | A8P | 3.27
240 | A8N | 1.69
241 | A8Y | 2.76
242 | A8F | 1.68
243 | A8D | 2.28
244 | A8M | 4.1
245 | A3P | 2.66
246 | A3K | 1.08
247 | A3D | 2.01
248 | A3W | 2.72
249 | A3Q | 2.68
250 | A3R | 2.69
251 | A3C | 3.67
252 | A3I | 2.65
253 | A3L | 2.06
254 | V22S | 2.57
255 | V22Q | 2.7
256 | V22F | 3.99
257 | V22D | 3.13
258 | V22Y | 4.13
259 | V22K | 4.89
260 | V22H | 2.31
261 | V22L | 2.33

Row | Variant | protein stability index
262 | F16D | 2.94
263 | F16Q | 3
264 | F16A | 2.88
265 | F16K | 1.86
266 | F16N | 2.28
267 | F16S | 2.99
268 | F16P | 4.4
269 | F16L | 2.57
270 | F16Y | 3.52
271 | F16V | 2.15
272 | L5F | 3.22
273 | L5H | 2.85
274 | L5W | 3.59
275 | L5R | 1.78
276 | L5K | 1.89
277 | L5Q | 2.8
278 | L5T | 2.43
279 | L5M | 2.54
280 | L5I | 2.01
281 | L5G | 1.95
282 | L5E | 1.58
283 | Q24K | 2.45
284 | Q24G | 2.92
285 | Q24P | 2.84
286 | Q24I | 1.85
287 | Q24R | 3.71

Row | Variant | protein stability index
288 | Q24S | 2.03
289 | Q24L | 2.2
290 | Q24D | 3.01
291 | Q24V | 3.35
292 | V1F | 2.66
293 | V1H | 1.68
294 | V1I | 2.75
295 | V1N | 2.64
296 | V1T | 2.62
297 | V1E | 3.26
298 | V1W | 1.72
299 | V1Y | 2.03
300 | V1K | 1.61
301 | V1L | 2.56
302 | V1Q | 2.13
303 | L7V | 3.13
304 | L7D | 1.99
305 | L7Q | 2.07
306 | L7Y | 3.97
307 | L7N | 2.38
308 | L7W | 4.04
309 | L7K | 3.13
310 | L7E | 2.39
311 | L7S | 2.63
312 | L7I | 2.46
313 | L7P | 2.7

Row | Variant | protein stability index
314 | A6V | 3.12
315 | A6P | 2.32
316 | A6F | 3.07
317 | A6C | 2.86
318 | A6S | 2.88
319 | A6H | 2.32
320 | A6W | 3.42
321 | V2H | 4.06
322 | V2T | 3.88
323 | V2D | 2.43
324 | V2E | 2.41
325 | V2Q | 3.03
326 | V2I | 1.66
327 | V2C | 3.71
328 | V2W | 1.31
329 | V2L | 2.63
330 | V2F | 2.9
331 | V2P | 1.66
332 | V2K | 4.51
333 | V2G | 1.72
334 | V2S | 2.18
